In patent US20170306033A1 (Amgen, published 2017):

Tests used:
human PAC1 receptor = biological target: T1, human PAC1 receptor (human, UniProt P41586 21-468); test: cell-based or functional assay
T1 sequence: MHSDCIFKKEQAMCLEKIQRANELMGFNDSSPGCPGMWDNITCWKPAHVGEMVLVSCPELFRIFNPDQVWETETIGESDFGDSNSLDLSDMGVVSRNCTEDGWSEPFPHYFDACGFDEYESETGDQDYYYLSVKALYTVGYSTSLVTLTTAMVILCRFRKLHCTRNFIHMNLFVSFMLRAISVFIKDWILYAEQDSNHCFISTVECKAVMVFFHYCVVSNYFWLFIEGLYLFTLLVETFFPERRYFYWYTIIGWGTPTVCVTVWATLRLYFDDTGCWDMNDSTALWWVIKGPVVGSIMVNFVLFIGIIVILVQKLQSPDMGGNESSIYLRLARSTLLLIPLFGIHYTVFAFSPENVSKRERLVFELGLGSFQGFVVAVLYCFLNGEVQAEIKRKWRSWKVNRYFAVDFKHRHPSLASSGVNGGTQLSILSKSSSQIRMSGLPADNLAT

human CGRP receptor = human CGRP receptor (human, UniProt Q16602 23-461; O60894 27-148); test: cell-based or functional assay
Chain of human CGRP receptor (Q16602 23-461 limits assumed, chain 1 of 2): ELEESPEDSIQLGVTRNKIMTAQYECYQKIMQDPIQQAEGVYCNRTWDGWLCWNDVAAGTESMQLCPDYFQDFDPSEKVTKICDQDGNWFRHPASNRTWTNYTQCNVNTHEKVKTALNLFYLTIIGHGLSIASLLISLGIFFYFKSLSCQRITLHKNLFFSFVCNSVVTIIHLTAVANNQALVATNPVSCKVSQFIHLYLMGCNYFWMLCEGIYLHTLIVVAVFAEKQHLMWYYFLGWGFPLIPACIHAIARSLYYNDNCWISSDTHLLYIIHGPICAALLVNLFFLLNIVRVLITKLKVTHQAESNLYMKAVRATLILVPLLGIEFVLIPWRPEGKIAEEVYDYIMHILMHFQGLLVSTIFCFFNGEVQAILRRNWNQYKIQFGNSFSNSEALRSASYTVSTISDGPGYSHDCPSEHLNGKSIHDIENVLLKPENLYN
Chain of human CGRP receptor (O60894 27-148 limits assumed, chain 2 of 2): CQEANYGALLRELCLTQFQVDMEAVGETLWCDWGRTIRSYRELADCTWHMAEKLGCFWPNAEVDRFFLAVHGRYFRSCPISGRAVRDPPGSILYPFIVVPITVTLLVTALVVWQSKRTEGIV

Row | Human PAC1 Receptor IC50 (human PAC1 receptor) | Human CGRP Receptor IC50 (human CGRP receptor) | Binder
1 | > 1000 nM | 0.42 nM | iPS:392531 (bispecific antibody, human IgG1, kappa, lambda, N297G) light: QSVLTQPPSVSAAPGQKVTISCSGSSSNIGNNYVSWYQKLPGTAPKLLIYDNNKRPSGIPDRFSGSKSGTSTTLGITGLQTGDEADYYCGTWDSRLSAVVFGGGTKLTVLGQPKANPTVTLFPPSSEELQANKATLVCLISDFYPGAVTVAWKADGSPVKAGVETTKPSKQSNNKYAAKSYLSLTPEQWKSHRSYSCQVTHEGSTVEKTVAPTECS heavy: not shown QVQLVESGAEVVKPGASVKVSCKASGFTFSRFAMHWVRKAPGQGLEWMGVISYDGGNKYYAESVKGRVTMTRDTSTSTLYMELSSLRSEDTAVYYCARGYDVLTGYPDYWGQGTLVTVSSASTKGPSVFPLAPSSKSTSGGTAALGCLVKDYFPEPVTVSWNSGALTSGVHTFPAVLQSSGLYSLKSVVTVPSSSLGTQTYICNVNHKPSNTKVDKKV
2 | 349 nM | 0.37 nM | iPS:392534 (bispecific antibody, human IgG1, kappa, lambda, N297G) light: QSVLTQPPSVSAAPGQKVTISCSGSSSNIGNNYVSWYQKLPGTAPKLLIYDNNKRPSGIPDRFSGSKSGTSTTLGITGLQTGDEADYYCGTWDSRLSAVVFGGGTKLTVLGQPKANPTVTLFPPSSEELQANKATLVCLISDFYPGAVTVAWKADGSPVKAGVETTKPSKQSNNKYAAKSYLSLTPEQWKSHRSYSCQVTHEGSTVEKTVAPTECS heavy: not shown QVQLVESGAEVVKPGASVKVSCKASGFTFSRFAMHWVRQAPGQGLEWMGVISYDGGNKYYAESVKGRVTMTRDTSTSTLYMELSSLRSEDTAVYYCARGYDVLTGYPDYWGQGTLVTVSSASTKGPSVFPLAPSSKSTSGGTAALGCLVKDYFPEPVTVSWNSGALTSGVHTFPAVLQSSGLYSLKSVVTVPSSSLGTQTYICNVNHKPSNTKVDKKV
3 | 206 nM | 0.59 nM | iPS:392533 (bispecific antibody, human IgG1, kappa, lambda, N297G) light: QSVLTQPPSVSAAPGQKVTISCSGSSSNIGNNYVSWYQQLPGTAPKLLIYDNNKRPSGIPDRFSGSKSGTSTTLGITGLQTGDEADYYCGTWDSRLSAVVFGGGTKLTVLGQPKANPTVTLFPPSSEELQANKATLVCLISDFYPGAVTVAWKADGSPVKAGVETTKPSKQSNNKYAAKSYLSLTPEQWKSHRSYSCQVTHEGSTVEKTVAPTECS heavy: not shown QVQLVESGAEVVKPGASVKVSCKASGFTFSRFAMHWVRKAPGQGLEWMGVISYDGGNKYYAESVKGRVTMTRDTSTSTLYMELSSLRSEDTAVYYCARGYDVLTGYPDYWGQGTLVTVSSASTKGPSVFPLAPSSKSTSGGTAALGCLVKDYFPEPVTVSWNSGALTSGVHTFPAVLQSSGLYSLKSVVTVPSSSLGTQTYICNVNHKPSNTKVDKKV
4 | 365 nM | 0.41 nM | iPS:392535 (bispecific antibody, human IgG1, kappa, lambda, N297G) light: QSVLTQPPSVSAAPGQKVTISCSGSSSNIGNNYVSWYQKLPGTAPKLLIYDNNKRPSGIPDRFSGSKSGTSTTLGITGLQTGDEADYYCGTWDSRLSAVVFGGGTKLTVLGQPKANPTVTLFPPSSEELQANKATLVCLISDFYPGAVTVAWKADGSPVKAGVETTKPSKQSNNKYAAKSYLSLTPEQWKSHRSYSCQVTHEGSTVEKTVAPTECS heavy: not shown QVQLVESGAEVVKPGASVKVSCKASGFTFSRFAMHWVRKAPGQGLEWMGVISYDGGNKYYAESVKGRVTMTRDTSTSTLYMELSSLRSEDTAVYYCARGYDVLTGYPDYWGQGTLVTVSSASTKGPSVFPLAPSSKSTSGGTAALGCLVKDYFPEPVTVSWNSGALTSGVHTFPAVLQSSGLYSLKSVVTVPSSSLGTQTYICNVNHKPSNTKVDKKV
5 | 352 nM | 0.51 nM | iPS:392532 (bispecific antibody, human IgG1, kappa, lambda, N297G) light: QSVLTQPPSVSAAPGQKVTISCSGSSSNIGNNYVSWYQQLPGTAPKLLIYDNNKRPSGIPDRFSGSKSGTSTTLGITGLQTGDEADYYCGTWDSRLSAVVFGGGTKLTVLGQPKANPTVTLFPPSSEELQANKATLVCLISDFYPGAVTVAWKADGSPVKAGVETTKPSKQSNNKYAAKSYLSLTPEQWKSHRSYSCQVTHEGSTVEKTVAPTECS heavy: not shown QVQLVESGAEVVKPGASVKVSCKASGFTFSRFAMHWVRQAPGQGLEWMGVISYDGGNKYYAESVKGRVTMTRDTSTSTLYMELSSLRSEDTAVYYCARGYDVLTGYPDYWGQGTLVTVSSASTKGPSVFPLAPSSKSTSGGTAALGCLVKDYFPEPVTVSWNSGALTSGVHTFPAVLQSSGLYSLKSVVTVPSSSLGTQTYICNVNHKPSNTKVDKKV
